# In publication PMC7840946 (Nature Communications, 2021):
# Target: PstS1 (Rv0934), recombinant, wild type (Mycobacterium tuberculosis H37Rv, UniProt P9WGU1)
# Experiment: SPR
# Settings: both partners purified
# Chain of PstS1 (Rv0934), recombinant, wild type (P9WGU1 25-374): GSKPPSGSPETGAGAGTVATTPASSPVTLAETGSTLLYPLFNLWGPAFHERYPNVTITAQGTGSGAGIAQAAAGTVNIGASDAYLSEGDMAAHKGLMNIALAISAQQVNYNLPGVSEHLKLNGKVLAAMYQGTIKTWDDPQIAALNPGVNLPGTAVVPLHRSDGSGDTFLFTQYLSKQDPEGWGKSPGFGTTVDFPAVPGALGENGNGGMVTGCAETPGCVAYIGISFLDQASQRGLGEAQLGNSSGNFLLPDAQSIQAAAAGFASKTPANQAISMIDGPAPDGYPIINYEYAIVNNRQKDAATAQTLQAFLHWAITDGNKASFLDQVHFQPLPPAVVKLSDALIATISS
binder,measurement,value
"p4-36gl, predicted germline version of mAb p4-36 (antibody, V domains shown, also called germline (gl) version of p4-36) VH: EVQLVESGGGLVQPGRSLRLSCTASGFTFGDYAMSWVRQAPGKGLEWVGFIRSKAYGGTTEYAASVKGRFTISRDDSKSIAYLQMNSLKTEDTAVYYCTGPRPYYDSSGYYPYYFDYWGQGTLVTVSS VL: QSALTQPRSVSGSPGQSVTISCTGTSSDVGGYNYVSWYQQHPGKAPKLMIYDVSKRPSGVPDRFSGSKSGNTASLTISGLQAEDEADYYCCSYAGSYTYVVFGGGTKLTVL",fold reduction in affinity against the mature p4-36,4.7 fold
